Reference: the RNAGym collection of RNA variant scans (doi:10.1073/pnas.2313332121)

B1: TPR t1 (parent)
chain: GACCAAUCUGCCCUCAGAGCUCGAGAACAUCUUCGGAUGCAGAGGAGGCAGGCUUCGGUGGCGCGAUAGCGCCAACGUCCUCAACCUCCAAUGCAUCCCACCACAUGAUGAUGCCUGAAGAGCCUUGGUUUUUUG

Variants of: B1
Assay: polymerase ribozyme fitness, log enrichment relative to wild type (log ratio); higher = more active; in vitro selection for triplet polymerase activity
In short: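 One round of in vitro selection, in triplicate, was applied to PCR-built, transcribed mutant libraries of each subunit of a heterodimeric triplet polymerase ribozyme. The steps were annealing with a biotinylated primer, partner subunit and triplets, incubation frozen at −7 °C, gel excision of extended constructs, streptavidin-bead capture and RT-PCR. Fitness is the logarithm, base 2, of genotype enrichment over wild-type enrichment from inverse-variance-weighted replicate averages of Illumina-sequenced inputs and outputs, keeping genotypes with ≥10 input reads and ≥1 read per output.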

| Variant | polymerase ribozyme fitness (log ratio) |
| --- | --- |
| C12A C15G C53U C88U U112A G113U C123A U129C | -3.91 |
| C12A C49G U109C A111U | -6.35 |
| C12A G69U G128C | -1.9 |
| C12A C13A C62U U78G C115G C124G G127U | -6.43 |
| C12A C88G G128U U129A | -4.77 |
| C12A C15A G47U C62U U78C A83U G120C U133A | -2.07 |
| C12A A66G G69U G71U | -2.65 |
| C12A A43U A46U G71U | -3.4 |
| C12A C70A | -2.05 |
| C12A A121G | 1.96 |
| C12A C62A U112A C123G | -1.09 |
| C12A G42A C70U U96A G135C | -4.85 |
| C12A A84U G110A C114U | -5.31 |
| C12A C72G A91C U96A | -2.9 |
| C12A C49U U109A U116A C123G | -6.73 |
| C12A C72U C102U C114G | -5.72 |
| C12A C31U A83C | -5.06 |
| C12A A91C U106A G117U | -5.61 |
| C12A G60A C88A C101A C102A | -4.87 |
| C12A C101U | -0.736 |
| C12A C20U C114U | -0.454 |
| C12A G65U G110A U131G G135U | -7.22 |
| C12A C85A | -2.59 |
| C12A C13U G39U | -0.844 |

| Variant | polymerase ribozyme fitness (log ratio) |
| --- | --- |
| C12A C70U U78G | -1.07 |
| C12A G48A | -0.767 |
| C12A G63U | -2.42 |
| C12A G63A | -1.5 |
| C12A G63C | -1.33 |
| C12A G36U G63A | -2.46 |
| C12A C53G U92C | -1.45 |
| C12A C31A | -6.73 |
| C12A C31U | -4.6 |
| C12A C62G | -0.737 |
| C12A G19U C40G C89U C102A U112C C114A | -2.47 |
| C12A A37U | -1.73 |
| C12A C72G U133C | -1.17 |
| C12A C53U U106G G113C G127C | -5.83 |
| C12A G23A G77U A119G | -5.67 |
| C12A G42A | -1.63 |
| C12A C114A | -1.3 |
| C12A C114U | -1.85 |
| C12A C62A U78G | -2.28 |
| C12A C22A U59A G61C | -5.61 |
| C12A A41U A90C | -1.95 |
| C12A C49U G113C U133C | -3.24 |
| C12A A41G | -0.758 |
| C12A A43C C53U | -2.86 |

| Variant | polymerase ribozyme fitness (log ratio) |
| --- | --- |
| C12A C124G G127U | 1.3 |
| C12A C72U G113C | -4.5 |
| C12A G36A U54A G57C C97A | -4.92 |
| C12A C49U C70G | -4.56 |
| C12A C49U G69C C80G C115G | -8.79 |
| C12A C15U C73A C79U C86A C115U | -3.16 |
| C12A G36C G60A | -1.66 |
| C12A C89A | -1.87 |
| C12A C22A A46U C79U | -6.1 |
| C12A G42U G60A U87A G113A | -4.01 |
| C12A C13U A95U A100U G110A | -2.79 |
| C12A A75G | -0.0398 |
| C12A C40U | -1.32 |
| C12A C40G | -1.7 |
| C12A C15G C56G | -2.69 |
| C12A G19U C79G | -5.7 |
| C12A G45A C85A | -3.04 |
| C12A A37U U78A A83G U106C | -3.17 |
| C12A C80U A84U C89U A119G C123A | 0.231 |
| C12A G17U | -3.81 |
| C12A G17A | -4.31 |
| C12A C89G C114A | -4.11 |
| C12A C13U U54A C72U C89A | -1.99 |
| C12A G36U G48A G63C C123A | -0.6 |

| Variant | polymerase ribozyme fitness (log ratio) |
| --- | --- |
| C12A C20U | -0.43 |
| C12A C20A | -2.37 |
| C12A G48U G71C | -1.56 |
| C12A G51U A90G | -2.76 |
| C12A G71U C89U C101U C123U G128C | -1.52 |
| C12A A66C U78A | -2.43 |
| C12A A111C | -0.641 |
| C12A A111U | -2.77 |
| C12A C70A C80U | -2.16 |
| C12A A50U A74C A84G U112A | -4.85 |
| C12A C34U | -4.77 |
| C12A G45U C56U U78A | -1.36 |
| C12A C123U G128C | 0.474 |
| C12A C22G G36U U116C G120U | -3.27 |
| C12A A43U C56A | -2.54 |
| C12A A43G C70A U81A G120U | -5.53 |
| C12A C102U | -2.56 |
| C12A C53G U54C A121C | 1.77 |
| C12A A83U U106G | -2.32 |
| C12A C20A G63A | -3.86 |
| C12A A43C G61U C123G | -0.577 |
| C12A C22U U96A | -4.9 |
| C12A C82G | -1.17 |
| C12A G61A | -0.687 |

| Variant | polymerase ribozyme fitness (log ratio) |
| --- | --- |
| C12A G61U | -0.581 |
| C12A A37G U55G | -0.496 |
| C12A C73A G120C A121U | 2.42 |
| C12A C72A G120C | 1.29 |
| C12A A75G C114A | -3.82 |
| C12A A46C U59A | -0.649 |
| C12A C56A | -1.02 |
| C12A C56U | 0.0114 |
| C12A C22U G45U C49U A68C G120U | -7.43 |
| C12A G45U G58C C98U C101A | -3.82 |
| C12A A43G C62U C124G G127U | -0.505 |
| C12A G51A C62U U96A | -5.39 |
| C12A C34G G120A | -4.45 |
| C12A C28U C40U A41U | -4 |
| C12A C124A | 1.83 |
| C12A C124G | 1.95 |
| C12A C124U | 0.853 |
| C12A G45U | -1.63 |
| C12A C15U G52U C62A C86U G117C | -5.92 |
| C12A G47C C49A U125A | -2.88 |
| C12A C15A C73U C82U | -3.66 |
| C12A G47C C70U G120C | -1.04 |
| C12A A50U C70A | -3.58 |
| C12A C123U | 0.76 |

| Variant | polymerase ribozyme fitness (log ratio) |
| --- | --- |
| C12A G19U G23U G47A G52C G69U G110C | -7.34 |
| C12A C15U C70U C86U | -2.81 |
| C12A G57A G60A | -0.307 |
| C12A G69A A90U U109A C115A | -7.7 |
| C12A A43C G61U | -0.92 |
| C12A C13A | -1.97 |
| C12A C13G | -0.617 |
| C12A C13G G45C A119U C124A U132A | 0.6 |
| C12A A91G U112A G127C | -1.8 |
| C12A G36A G61A U92A C123U | -3.77 |
| C12A G45U A100U | -3.05 |
| C12A C13G G45C G63A A119U C124A U132A | 0.867 |
| C12A A43U | -2.89 |
| C12A G61U C79A | -1.28 |
| C12A G39U G117A | -2.74 |
| C12A G52U G57U C64U C72U A105U | -3.63 |
| C12A C15A U132A | -3.86 |
| C12A G48C C72U G117U | -5.59 |
| C12A A37U U78C C82U A108G | -3.38 |
| C12A C31U G35A C104G C115U | -6.08 |
| C12A A46U C62U C98G C115G U132G | -6.35 |
| C12A G36C U55G C72U U96G | -4.76 |
| C12A C53G | -1.23 |
| C12A C56A C62U A91U G128C | -5.72 |

| Variant | polymerase ribozyme fitness (log ratio) |
| --- | --- |
| C12A C13U G71A G93A | -0.733 |
| C12A C56G A84U | -1.85 |
| C12A G61U U109G | -7.2 |
| C12A A50U G61C U78C C85U C124U | -6.64 |
| C12A C28A G39C A111C G122A | -5.3 |
| C12A G61U C98U U125A | -1.77 |
| C12A C86U | -0.885 |
| C12A C56U C94G | -2.21 |
| C12A G36U C64U A83G G113A | -4.18 |
| C12A G47U | -2.48 |
| C12A G47A | -1.98 |
| C12A C79A | -1.35 |
| C12A A41C U92G A111G | -2.42 |
| C12A G17A G61U | -4.75 |
| C12A C115U | -1.21 |
| C12A C56A C123U U131G | 0.231 |
| C12A C80A G120U | -0.968 |
| C12A G47A C72G G93A G135U | -4.39 |
| C12A G48U C102A A118G | -4.24 |
| C12A C88U | -0.873 |
| C12A C53A A108G | -2.7 |
| C12A C28G G44A | -4.91 |
| C12A G42C G69U C80U | -1.06 |
